Results taken from paper PMC3459908 (2012).

Legend:
BMP2 (Homo sapiens) = BMP2 (Homo sapiens) (UniProt P12643); experiment: SPR; conditions: cited from earlier work
BMP7 [1] = molecular target: T1, BMP7 (Homo sapiens (Human),Homo sapiens …, UniProt P18075,P18075); experiment: SPR kinetic 1:1, BMP immobilised, full soluble RGM analyte
T1 chain 1: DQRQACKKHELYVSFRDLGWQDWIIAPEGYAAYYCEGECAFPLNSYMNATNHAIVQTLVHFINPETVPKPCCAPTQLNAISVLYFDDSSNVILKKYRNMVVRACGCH
T1 chain 2: T1 chain 1

BMP9 = molecular target: T2, BMP9 (Homo sapiens (Human),Homo sapiens …, UniProt Q9UK05,Q9UK05); experiment: as above
T2 chain 1: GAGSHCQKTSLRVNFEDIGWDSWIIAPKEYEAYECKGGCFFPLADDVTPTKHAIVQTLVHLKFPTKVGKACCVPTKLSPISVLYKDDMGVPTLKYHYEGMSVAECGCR
T2 chain 2: T2 chain 1

BMP4 [2] = molecular target: T3, BMP4 (Homo sapiens (Human),Homo sapiens …, UniProt P12644,P12644); experiment: as above
T3 chain 1: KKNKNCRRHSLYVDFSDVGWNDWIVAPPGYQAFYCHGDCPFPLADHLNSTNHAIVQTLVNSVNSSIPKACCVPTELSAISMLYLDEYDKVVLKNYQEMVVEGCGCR
T3 chain 2: T3 chain 1

BMP2 [3] = molecular target: T4, BMP2 (Homo sapiens (Human),Homo sapiens …, UniProt P12643,P12643); experiment: as above
T4 chain 1: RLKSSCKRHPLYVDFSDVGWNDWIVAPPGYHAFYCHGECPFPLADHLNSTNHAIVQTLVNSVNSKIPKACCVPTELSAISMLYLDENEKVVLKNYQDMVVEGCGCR
T4 chain 2: T4 chain 1

BMP5 [4] = molecular target: T5, BMP5 (Homo sapiens (Human),Homo sapiens …, UniProt P22003,P22003); experiment: as above
T5 chain 1: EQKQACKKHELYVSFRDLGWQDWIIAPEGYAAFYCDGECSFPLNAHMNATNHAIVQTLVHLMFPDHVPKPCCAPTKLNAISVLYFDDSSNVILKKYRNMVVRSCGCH
T5 chain 2: T5 chain 1

BMP6 [5] = molecular target: T6, BMP6 (Homo sapiens, UniProt P22004); experiment: SPR
T6 chain: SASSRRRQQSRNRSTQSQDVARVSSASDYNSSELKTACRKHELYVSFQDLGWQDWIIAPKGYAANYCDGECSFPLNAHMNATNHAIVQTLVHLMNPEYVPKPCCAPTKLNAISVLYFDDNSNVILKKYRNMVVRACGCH

BMP7 [6] = molecular target: T7, BMP7 (Homo sapiens, UniProt P18075); experiment: SPR
T7 chain: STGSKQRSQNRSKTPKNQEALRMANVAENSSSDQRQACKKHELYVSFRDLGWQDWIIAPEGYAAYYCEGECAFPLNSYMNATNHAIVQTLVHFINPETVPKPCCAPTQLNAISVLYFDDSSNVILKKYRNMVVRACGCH

BMP4 [7] = molecular target: T8, BMP4 (Homo sapiens, UniProt P12644); experiment: SPR
T8 chain: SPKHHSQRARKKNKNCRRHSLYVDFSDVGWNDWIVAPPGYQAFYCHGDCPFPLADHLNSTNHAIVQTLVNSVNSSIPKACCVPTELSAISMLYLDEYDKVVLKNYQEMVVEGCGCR

BMP5 [8] = molecular target: T9, BMP5 (Homo sapiens, UniProt P22003); experiment: SPR
T9 chain: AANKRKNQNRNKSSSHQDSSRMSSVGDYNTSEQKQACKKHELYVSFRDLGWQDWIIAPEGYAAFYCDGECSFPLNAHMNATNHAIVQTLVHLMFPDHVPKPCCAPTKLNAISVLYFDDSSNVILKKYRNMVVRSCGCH

BMP2 [9] = molecular target: T10, BMP2 (Homo sapiens, UniProt P12643); experiment: SPR
T10 chain: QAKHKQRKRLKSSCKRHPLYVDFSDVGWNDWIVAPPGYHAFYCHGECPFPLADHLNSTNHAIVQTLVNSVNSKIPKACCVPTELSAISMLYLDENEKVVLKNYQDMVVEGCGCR

BMP6 [10] = molecular target: T11, BMP6 (Homo sapiens (Human),Homo sapiens …, UniProt P22004,P22004); experiment: SPR kinetic 1:1, BMP immobilised, full soluble RGM analyte
T11 chain 1: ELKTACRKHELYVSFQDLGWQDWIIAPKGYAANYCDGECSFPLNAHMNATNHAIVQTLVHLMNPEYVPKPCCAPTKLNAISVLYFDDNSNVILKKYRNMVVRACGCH
T11 chain 2: T11 chain 1

For HJV (from UniProt Q6ZVN8), the Kd (BMP2 (Homo sapiens)) is listed as 140 nM.

B1: RGMB (protein)
chain: QCRIQKCTTDFVSLTSHLNSAVDGFDSEFCKALRAYAGCTQRTSKACRGNLVYHSAVLGISDLMSQRNCSKDGPTSSTNP
B1 gave a Kd (BMP7 [1]) of 166 nM, a Kd (BMP9) greater than 30 nM and a Kd (BMP4 [2]) of 2.6 nM. The Kd (BMP2 [3]) was 5.5 nM and the Kd (BMP5 [4]) was 33 nM.

B2: RGMB (protein)
chain: GDCQQPAQCRIQKCTTDFVSLTSHLNSAVDGFDSEFCKALRAYAGCTQRTSKACRGNLVYHSAVLGISDLMSQRNCSKDGPTSSTNPEVTHDPCNYHSHAGAREHRRGDQNPPSYLFCGLFGDPHLRTFKDNFQTCKVEGAWPLIDNNYLSVQVTNVPVVPGSSATATNKITIIFKAHHECTDQKVYQAVTDDLPAAFVDGTTSGGDSDAKSLRIVERESGHYVEMHARYIGTTVFVRQVGRYLTLAIRMPEDLAMSYEESQDLQLCVNGCPLSERIDDGQGQVSAILGHSLPRTSLVQAWPGYTLETANTQCHEKMPVKDIYFQSCVFDLLTTGDANFTAAAHSALEDVEALHPRKERWHIFPSSGN
In the case of B2, the Kd (BMP6 [5]) is reported as 28 nM.

B3: RGMA (protein)
chain: PCKILKCNSEFWSATSGSHAPASDDTPEFCAALRSYALCTRRTARTCRGDLAYHSAVHGIEDLMSQHNCSKDGPTSQPRL
Work on B3 yielded a Kd (BMP9) greater than 100 nM.

B4: HJV (protein)
chain: QCKILRCNAEYVSSTLSLRGGGSSGALRGGGGGGRGGGVGSGGLCRALRSYALCTRRTARTCRGDLAFHSAVHGIEDLMIQHNCSRQGPTAPPPPRGPALPGAGSGLPAPDPCDYEGRFSRLHGRPPGFLHCASFGDPHVRSFHHHFHTCRVQGAWPLLDNDFLFVQATSSPMALGANATATRKLTIIFKNMQECIDQKVYQAEVDNLPVAFEDGSINGGDRPGGSSLSIQTANPGNHVEIQAAYIGTTIIIRQTAGQLSFSIKVAEDVAMAFSAEQDLQLCVGGCPPSQRLSRSERNRRGAITIDTARRLCKEGLPVEDAYFHSCVFDVLISGDPNFTVAAQAALEDARAFLPDLEKLHLFPSD
B4 showed a Kd (BMP6 [5]) of 8.1 nM, a Kd (BMP7 [6]) of 20 nM and a Kd (BMP4 [7]) of 4.5 nM. The Kd (BMP5 [8]) was 17 nM and the Kd (BMP2 [9]) was 9.4 nM.

B5: RGMA (protein)
chain: PHLRTFTDRFQTCKVQGAWPLIDNNYLNVQVTNTPVLPGSAATATSKLTIIFKNFQECVDQKVYQAEMDELPAAFVDGSKNGGDKHGANSLKITEKVSGQHVEIQAKYIGTTIVVRQVGRYLTFAVRMPEEVVNAVEDWDSQGLYLCLRGCPLNQQIDFQAFHTNAEGTGARRLAAASPAPTAPETFPYETAVAKCKEKLPVEDLYYQACVFDLLTTGDVNFTLAAYYALEDVKMLHSNKDKLHLYERTRDLPGRA
In the case of B5, the Kd (BMP6 [5]) is reported as 55 nM, the Kd (BMP7 [6]) is reported as 63 nM and the Kd (BMP4 [7]) is reported as 14 nM. For the same molecule, the Kd (BMP5 [8]) was 83 nM and the Kd (BMP2 [9]) was 22 nM.

B6: RGMC (protein)
chain: QCKILRCNAEYVSSTLSLRGGGSSGALRGGGGGGRGGGVGSGGLCRALRSYALCTRRTARTCRGDLAFHSAVHGIEDLMIQHNCSRQGPTAPPPP
B6 gave a Kd (BMP7 [1]) of 20 nM, a Kd (BMP9) greater than 200 nM and a Kd (BMP4 [2]) of 4.5 nM. The Kd (BMP2 [3]) was 9.4 nM, the Kd (BMP6 [10]) was 8.1 nM and the Kd (BMP5 [4]) was 17 nM.
